Experimental data taken from paper PMC9482650, “Quantitative fragmentomics allow affinity mapping of interactomes” (Nature Communications, 2022).

What was measured:
Test in all cases: holdup assay
Design in all cases: key: below the threshold = too weak to quantify, mostly under pKd 3.1 to 4
Settings in all cases: plain residues with an end cap or a label only (N-terminal biotin on a linker: ttds)
APBA3_1, O96018 = molecular target: T1, APBA3_1, O96018
T1 sequence (O96018 389-490, limits assumed, looked up): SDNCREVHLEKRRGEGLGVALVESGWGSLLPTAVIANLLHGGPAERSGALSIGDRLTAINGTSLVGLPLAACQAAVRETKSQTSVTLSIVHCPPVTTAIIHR

CASK, O14936 = molecular target: CASK, O14936
DLG1_3, Q12959 = molecular target: DLG1_3, Q12959
DLG3_1, Q92796 = molecular target: T2, DLG3_1, Q92796
T2 sequence (Q92796 125-227, limits assumed, looked up): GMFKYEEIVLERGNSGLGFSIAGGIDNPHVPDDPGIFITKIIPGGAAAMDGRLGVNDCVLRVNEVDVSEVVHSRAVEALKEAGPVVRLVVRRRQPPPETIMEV

DLG3_2, Q92796 = molecular target: T3, DLG3_2, Q92796
T3 sequence (Q92796 221-321, limits assumed, looked up): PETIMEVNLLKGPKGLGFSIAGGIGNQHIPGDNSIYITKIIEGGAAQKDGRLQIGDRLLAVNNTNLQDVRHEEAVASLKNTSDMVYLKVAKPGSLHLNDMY

DLG4_1, P78352 = molecular target: DLG4_1, P78352
FRMPD2_3, Q68DX3 = molecular target: FRMPD2_3, Q68DX3
GORASP2, Q9H8Y8 = molecular target: GORASP2, Q9H8Y8
Inadl_5, Q8NI35 = molecular target: Inadl_5, Q8NI35
LNX1_1, Q8TBB1 = molecular target: LNX1_1, Q8TBB1
LNX2_3, Q8N448 = molecular target: T4, LNX2_3, Q8N448
T4 sequence (Q8N448 463-564, limits assumed, looked up): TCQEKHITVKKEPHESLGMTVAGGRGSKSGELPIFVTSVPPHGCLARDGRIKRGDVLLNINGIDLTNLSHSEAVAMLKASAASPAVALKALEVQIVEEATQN

MPDZ_5, O75970 = molecular target: T5, MPDZ_5, O75970
T5 sequence (O75970 695-796, limits assumed, looked up): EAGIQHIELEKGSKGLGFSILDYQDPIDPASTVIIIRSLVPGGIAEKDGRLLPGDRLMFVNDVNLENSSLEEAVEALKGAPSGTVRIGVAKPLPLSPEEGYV

MPP7, Q5T2T1 = molecular target: T6, MPP7, Q5T2T1
T6 sequence (Q5T2T1 134-230, limits assumed, looked up): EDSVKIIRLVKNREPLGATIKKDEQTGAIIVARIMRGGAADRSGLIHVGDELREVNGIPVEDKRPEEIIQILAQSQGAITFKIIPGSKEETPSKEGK

NHERF4_1, Q86UT5-2 = molecular target: NHERF4_1, Q86UT5-2
PDZRN3_1, Q9UPQ7 = molecular target: T7, PDZRN3_1, Q9UPQ7
T7 sequence (Q9UPQ7 244-349, limits assumed, looked up): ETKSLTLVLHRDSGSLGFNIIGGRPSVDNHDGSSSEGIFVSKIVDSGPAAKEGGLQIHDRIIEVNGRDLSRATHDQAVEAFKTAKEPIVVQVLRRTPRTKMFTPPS

PICK1, Q9NRD5 = molecular target: PICK1, Q9NRD5
PTPN13_1, Q12923 = molecular target: T8, PTPN13_1, Q12923
T8 sequence (Q12923 1088-1188, limits assumed, looked up): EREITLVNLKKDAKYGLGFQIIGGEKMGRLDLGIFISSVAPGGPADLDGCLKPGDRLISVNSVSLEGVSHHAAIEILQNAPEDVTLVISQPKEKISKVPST

RHPN1, Q8TCX5 = molecular target: T9, RHPN1, Q8TCX5
T9 sequence (Q8TCX5 508-602, limits assumed, looked up): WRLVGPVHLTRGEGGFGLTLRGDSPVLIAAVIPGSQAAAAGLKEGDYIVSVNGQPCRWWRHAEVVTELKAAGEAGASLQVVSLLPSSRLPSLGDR

SCRIB_1, Q14160 = molecular target: SCRIB_1, Q14160
SCRIB_2, Q14160 = molecular target: SCRIB_2, Q14160
SCRIB_3, Q14160 = molecular target: SCRIB_3, Q14160
SHANK1, Q9Y566 = molecular target: T10, SHANK1, Q9Y566
T10 sequence (Q9Y566 658-767, limits assumed, looked up): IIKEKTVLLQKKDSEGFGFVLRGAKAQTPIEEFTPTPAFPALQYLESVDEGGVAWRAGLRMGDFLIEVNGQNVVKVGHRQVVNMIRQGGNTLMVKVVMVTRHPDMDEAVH

SNTG1, Q9NSN8 = molecular target: T11, SNTG1, Q9NSN8
T11 sequence (Q9NSN8 52-150, limits assumed, looked up): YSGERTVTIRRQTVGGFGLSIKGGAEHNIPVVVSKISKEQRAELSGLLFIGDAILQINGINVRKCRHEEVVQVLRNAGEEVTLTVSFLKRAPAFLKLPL

SNX27, Q96L92 = molecular target: SNX27, Q96L92
TJP2_1, Q9UDY2 = molecular target: TJP2_1, Q9UDY2
TJP2_1, Q9UDY2, sequence (Q9UDY2 24-128): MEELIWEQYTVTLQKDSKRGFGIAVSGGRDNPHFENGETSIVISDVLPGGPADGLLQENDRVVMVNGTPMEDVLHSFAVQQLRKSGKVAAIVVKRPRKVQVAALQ

PICK1, Q9NRD5, sequence (Q9NRD5 17-115): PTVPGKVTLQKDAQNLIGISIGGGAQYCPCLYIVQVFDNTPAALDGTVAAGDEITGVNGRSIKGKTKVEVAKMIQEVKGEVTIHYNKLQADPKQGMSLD
SCRIB_3, Q14160, sequence (Q14160 999-1103): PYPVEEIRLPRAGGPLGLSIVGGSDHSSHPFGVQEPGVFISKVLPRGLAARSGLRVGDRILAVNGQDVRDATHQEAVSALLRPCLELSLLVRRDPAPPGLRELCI
SCRIB_1, Q14160, sequence (Q14160 718-814): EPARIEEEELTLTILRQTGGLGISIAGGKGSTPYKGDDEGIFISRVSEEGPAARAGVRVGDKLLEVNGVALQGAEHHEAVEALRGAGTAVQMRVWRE
SCRIB_2, Q14160, sequence (Q14160 857-960): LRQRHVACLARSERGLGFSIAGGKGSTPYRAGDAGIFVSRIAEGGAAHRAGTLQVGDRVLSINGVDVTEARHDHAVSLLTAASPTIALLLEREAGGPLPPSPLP
Inadl_5, Q8NI35, sequence (Q8NI35 673-780): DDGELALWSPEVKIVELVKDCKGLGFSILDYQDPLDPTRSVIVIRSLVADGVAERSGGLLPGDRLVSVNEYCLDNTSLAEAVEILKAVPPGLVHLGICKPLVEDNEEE
FRMPD2_3, Q68DX3, sequence (Q68DX3 1073-1166): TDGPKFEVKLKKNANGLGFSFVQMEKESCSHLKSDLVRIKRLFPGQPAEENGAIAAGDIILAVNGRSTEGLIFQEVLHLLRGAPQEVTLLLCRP
DLG1_3, Q12959, sequence (Q12959 457-571): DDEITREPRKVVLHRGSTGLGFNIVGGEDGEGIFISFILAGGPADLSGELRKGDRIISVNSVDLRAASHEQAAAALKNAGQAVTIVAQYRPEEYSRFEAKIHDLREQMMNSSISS
LNX1_1, Q8TBB1, sequence (Q8TBB1 261-371): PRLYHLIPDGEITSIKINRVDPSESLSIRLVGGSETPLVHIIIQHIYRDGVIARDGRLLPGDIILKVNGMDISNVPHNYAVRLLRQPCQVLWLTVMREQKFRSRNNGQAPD
NHERF4_1, Q86UT5-2, sequence (Q86UT5 other isoform, or with tags, fused parts or gaps): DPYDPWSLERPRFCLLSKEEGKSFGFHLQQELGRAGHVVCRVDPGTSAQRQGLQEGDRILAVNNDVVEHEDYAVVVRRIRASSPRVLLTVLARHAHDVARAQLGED
DLG4_1, P78352, sequence (P78352 62-152): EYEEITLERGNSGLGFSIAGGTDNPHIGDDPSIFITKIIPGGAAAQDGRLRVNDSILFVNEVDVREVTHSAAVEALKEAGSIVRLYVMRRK
CASK, O14936, sequence (O14936 487-570): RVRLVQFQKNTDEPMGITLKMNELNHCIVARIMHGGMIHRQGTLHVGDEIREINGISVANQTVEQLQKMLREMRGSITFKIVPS

B1: KIR3DL3, Q8N743 (peptide)
chain: PKTPPTDTSV
APBA3_1, O96018
  pKd: below the threshold
CASK, O14936
  pKd: below the threshold
DLG1_3, Q12959
  pKd: below the threshold
DLG3_1, Q92796
  pKd: 3.69
DLG3_2, Q92796
  pKd: 4.14
DLG4_1, P78352
  pKd: 4.04
FRMPD2_3, Q68DX3
  pKd: below the threshold
GORASP2, Q9H8Y8
  pKd: 4.04
Inadl_5, Q8NI35
  pKd: below the threshold
LNX1_1, Q8TBB1
  pKd: below the threshold
LNX2_3, Q8N448
  pKd: below the threshold
MPDZ_5, O75970
  pKd: below the threshold
MPP7, Q5T2T1
  pKd: below the threshold
NHERF4_1, Q86UT5-2
  pKd: below the threshold
PDZRN3_1, Q9UPQ7
  pKd: below the threshold
PICK1, Q9NRD5
  pKd: below the threshold
PTPN13_1, Q12923
  pKd: below the threshold
RHPN1, Q8TCX5
  pKd: below the threshold
SCRIB_1, Q14160
  pKd: 3.69
SCRIB_2, Q14160
  pKd: 4.08
SCRIB_3, Q14160
  pKd: below the threshold
SHANK1, Q9Y566
  pKd: below the threshold
SNTG1, Q9NSN8
  pKd: below the threshold
SNX27, Q96L92
  pKd: 4.28
TJP2_1, Q9UDY2
  pKd: below the threshold

B2: VANGL1, Q8TAA9 (peptide)
chain: VLRLQSETSV
APBA3_1, O96018
  pKd: below the threshold
CASK, O14936
  pKd: below the threshold
DLG1_3, Q12959
  pKd: 4.63
DLG3_1, Q92796
  pKd: 3.96
DLG3_2, Q92796
  pKd: 4.64
DLG4_1, P78352
  pKd: 4.4
FRMPD2_3, Q68DX3
  pKd: below the threshold
GORASP2, Q9H8Y8
  pKd: below the threshold
Inadl_5, Q8NI35
  pKd: below the threshold
LNX1_1, Q8TBB1
  pKd: below the threshold
LNX2_3, Q8N448
  pKd: below the threshold
MPDZ_5, O75970
  pKd: below the threshold
MPP7, Q5T2T1
  pKd: below the threshold
NHERF4_1, Q86UT5-2
  pKd: below the threshold
PDZRN3_1, Q9UPQ7
  pKd: 4.4
PICK1, Q9NRD5
  pKd: below the threshold
PTPN13_1, Q12923
  pKd: below the threshold
RHPN1, Q8TCX5
  pKd: 4.37
SCRIB_1, Q14160
  pKd: 5.53
SCRIB_2, Q14160
  pKd: 4.72
SCRIB_3, Q14160
  pKd: 4.54
SHANK1, Q9Y566
  pKd: 3.77
SNTG1, Q9NSN8
  pKd: 4.67
SNX27, Q96L92
  pKd: 5.7
TJP2_1, Q9UDY2
  pKd: below the threshold

B3: KCNT2, Q6UVM3 (peptide)
chain: GQDSREETQL
APBA3_1, O96018
  pKd: below the threshold
CASK, O14936
  pKd: below the threshold
DLG1_3, Q12959
  pKd: below the threshold
DLG3_1, Q92796
  pKd: below the threshold
DLG3_2, Q92796
  pKd: 4
DLG4_1, P78352
  pKd: below the threshold
FRMPD2_3, Q68DX3
  pKd: below the threshold
GORASP2, Q9H8Y8
  pKd: below the threshold
Inadl_5, Q8NI35
  pKd: below the threshold
LNX1_1, Q8TBB1
  pKd: below the threshold
LNX2_3, Q8N448
  pKd: below the threshold
MPDZ_5, O75970
  pKd: below the threshold
MPP7, Q5T2T1
  pKd: below the threshold
NHERF4_1, Q86UT5-2
  pKd: 4.06
PDZRN3_1, Q9UPQ7
  pKd: 4.97
PICK1, Q9NRD5
  pKd: below the threshold
PTPN13_1, Q12923
  pKd: below the threshold
RHPN1, Q8TCX5
  pKd: 5
SCRIB_1, Q14160
  pKd: 4.57
SCRIB_2, Q14160
  pKd: 3.83
SCRIB_3, Q14160
  pKd: 5.07
SHANK1, Q9Y566
  pKd: 4.67
SNTG1, Q9NSN8
  pKd: 3.73
SNX27, Q96L92
  pKd: 5.27
TJP2_1, Q9UDY2
  pKd: below the threshold
